Measurements published in patent US20250236663A1.

Legend:
[1] = target: Recombinant human FAM19A5 protein (His-tagged) (human) (UniProt Q7Z5A7); assay: ELISA, N'-Term His; parameters: unit not given here
[2] = target: Recombinant human FAM19A5 protein (His-tagged) (human) (UniProt Q7Z5A7); assay: ELISA, N'-Term His; R² 0.9813
[3] = target: Recombinant human FAM19A5 protein (His-tagged) (human) (UniProt Q7Z5A7); assay: ELISA, N'-Term His; R² -0.2016
[4] = target: Recombinant human FAM19A5 protein (His-tagged) (human) (UniProt Q7Z5A7); assay: two-site sandwich ELISA, capture antibody 1-65; O.D. 0.16 / 0.15 / 0.15 at antigen 100 / 10 / 0 (ng/mL); grey box
[5] = target: Recombinant human FAM19A5 protein (His-tagged) (human) (UniProt Q7Z5A7); assay: two-site sandwich ELISA, capture antibody 3-2; O.D. 1.91 / 1.66 / 0.16 at antigen 100 / 10 / 0 (ng/mL); white box
[6] = target: Recombinant human FAM19A5 protein (His-tagged) (human) (UniProt Q7Z5A7); assay: two-site sandwich ELISA, capture antibody P2-F11; O.D. 0.15 / 0.15 / 0.14 at antigen 100 / 10 / 0 (ng/mL); grey box
[7] = target: Recombinant human FAM19A5 protein (His-tagged) (human) (UniProt Q7Z5A7); assay: two-site sandwich ELISA, capture antibody 2-13; O.D. 1.88 / 1.72 / 0.22 at antigen 100 / 10 / 0 (ng/mL); white box
[8] = target: Recombinant human FAM19A5 protein (His-tagged) (human) (UniProt Q7Z5A7); assay: ELISA, N'-Term His; R² 0.9746
[9] = target: Recombinant human FAM19A5 protein (His-tagged) (human) (UniProt Q7Z5A7); assay: two-site sandwich ELISA, capture antibody 13B4; O.D. 0.27 / 0.22 / 0.22 at antigen 100 / 10 / 0 (ng/mL); grey box
[10] = target: Recombinant human FAM19A5 protein (His-tagged) (human) (UniProt Q7Z5A7); assay: OCTET (BLI), His-tagged FAM19A5 on Ni-NTA biosensors, antibody at 1.1-300 nM
[11] = target: Recombinant human FAM19A5 protein (His-tagged) (human) (UniProt Q7Z5A7); assay: ELISA, N'-Term His; R² 0.9105
[12] = target: Recombinant human FAM19A5 protein (His-tagged) (human) (UniProt Q7Z5A7); assay: ELISA, N'-Term His; R² 0.9329
[13] = target: Recombinant human FAM19A5 protein (His-tagged) (human) (UniProt Q7Z5A7); assay: two-site sandwich ELISA, capture antibody 13B4; O.D. 0.2 / 0.18 / 0.18 at antigen 100 / 10 / 0 (ng/mL); grey box
[14] = target: Recombinant human FAM19A5 protein (His-tagged) (human) (UniProt Q7Z5A7); assay: two-site sandwich ELISA, capture antibody P2-A03; O.D. 0.09 / 0.09 / 0.09 at antigen 100 / 10 / 0 (ng/mL); grey box
[15] = target: Recombinant human FAM19A5 protein (His-tagged) (human) (UniProt Q7Z5A7); assay: ELISA, N'-Term His; R² 0.9692
[16] = target: Recombinant human FAM19A5 protein (His-tagged) (human) (UniProt Q7Z5A7); assay: two-site sandwich ELISA, capture antibody 2-13; O.D. 1.83 / 2.04 / 0.29 at antigen 100 / 10 / 0 (ng/mL); white box
[17] = target: Recombinant human FAM19A5 protein (His-tagged) (human) (UniProt Q7Z5A7); assay: two-site sandwich ELISA, capture antibody 3-2; O.D. 2.02 / 1.81 / 0.13 at antigen 100 / 10 / 0 (ng/mL); white box
[18] = target: Recombinant human FAM19A5 protein (His-tagged) (human) (UniProt Q7Z5A7); assay: two-site sandwich ELISA, capture antibody 1-65; O.D. 1.25 / 0.2 / 0.12 at antigen 100 / 10 / 0 (ng/mL); grey box but for the cell of 100
[19] = target: Recombinant human FAM19A5 protein (His-tagged) (human) (UniProt Q7Z5A7); assay: two-site sandwich ELISA, capture antibody P2-A03; O.D. 0.15 / 0.16 / 0.14 at antigen 100 / 10 / 0 (ng/mL); grey box
[20] = target: Recombinant human FAM19A5 protein (His-tagged) (human) (UniProt Q7Z5A7); assay: two-site sandwich ELISA, capture antibody 1-65; O.D. 0.12 / 0.12 / 0.12 at antigen 100 / 10 / 0 (ng/mL); grey box
[21] = target: Recombinant human FAM19A5 protein (His-tagged) (human) (UniProt Q7Z5A7); assay: ELISA, N'-Term His; R² 0.8823
[22] = target: Recombinant human FAM19A5 protein (His-tagged) (human) (UniProt Q7Z5A7); assay: two-site sandwich ELISA, capture antibody 3-2; O.D. 1.7 / 0.3 / 0.13 at antigen 100 / 10 / 0 (ng/mL); white box
[23] = target: Recombinant human FAM19A5 protein (His-tagged) (human) (UniProt Q7Z5A7); assay: two-site sandwich ELISA, capture antibody P2-F11; O.D. 0.14 / 0.16 / 0.15 at antigen 100 / 10 / 0 (ng/mL); grey box
[24] = target: Recombinant human FAM19A5 protein (His-tagged) (human) (UniProt Q7Z5A7); assay: two-site sandwich ELISA, capture antibody 2-13; O.D. 1.92 / 0.65 / 0.21 at antigen 100 / 10 / 0 (ng/mL); white box

B1: P1-A03 (antibody, V domains shown)
VH: QSVEESGGRLVTPGTPLTLTCTVSGFSLSSDYMSWVRQAPGEGLEWIGIIYPSTTTYYASWAKGRFTISKTSSTTVELKMTSLTTEDTATYFCARGSNWSSGMNLWGPGTLVTVSS
VL: ELVMTQTPPSLSASVGETVRIRCLASEDIYSGISWYQQKPEKPPTLLISGASNLESGVPPRFSGSGSGTDYTLTIGGVQAEDAATYYCLGGYSYSSTGLTFGAGTNVEIK
- Bmax [1]: 2.45
- Kd [2]: 7.5 nM

B2: Anti-FAM19A5 (P1-F02) (antibody, V domains shown)
VH: QSLEESGGRLVTPGTPLTLTCTASGFSLSNYYMGWVRQAPGEGLEWIGIIYASGSTYYASWAKGRFTISKTSTTVDLKMTSLTTEDTATYFCARIDIGVGDYGWAYDRLDLWGQGTLVTVSS
VL: ELDMTQTPPSLSASVGETVRIRCLASEDIYSGISWYQQKPGKPPTLLIYGASNLESGVPPRFSGSGSGTDYTLTIGGVQAEDAATYYCLGGYSYSSITFGAGTNVEIK
- Bmax [1]: 0.172

B3: Anti-FAM19A5 (P1-A08) (antibody, V domains shown)
VH: QSLEESGGRLVTPGTPLTLTCTASGFSLSTYYMSWVRQAPGKGLEWIGIVYPSGTTYYANWAKGRFTISTASTTVDLMITSPTTEDTATYFCARGDSFGYGLWGPGTLVTVSS
VL: ELVLTQSPSVQVNLGQTVSLTCTADTLSRSYASWYQQKPGQAPVLLIYRDTSRPSGVPDRFSGSSSGNTATLTISGAQAGDEADYYCATSDGSGSNYQYVFGGGTQLTVT
- Bmax [1]: 0.479
- Kd [3]: 6.95 nM

B4: Anti-FAM19A5 (P2-A03) (antibody, V domains shown)
VH: QSVEESGGRLVTPGTPLTLTCTVSGFSLNNYDMSWVRQAPGKGLEYIGFMDTDGSAYYATWAKGRFTISRTSTTVDLKMTSPTTEDTATYFCARRGSSYYGGIDIWGPGTPVTVSL
VL: ELDLTQTPASVSEPVGGTVTIKCQASQSIGGNLAWYQQKPGQPPKLLIYRASTLASGVPSRFKGSGSGTDFTLTISDLECADAATYYCQSPAYDPAAYVGNAFGGGTELEIL
- S/N [4]: 1
- Bmax [1]: 3.37
- S/N [5]: 10
- S/N [6]: 1.1
- S/N [7]: 7.8
- Kd [8]: 0.61 nM
- S/N [9]: 1

B5: Anti-FAM19A5 (15A9) (antibody, V domains shown)
VH: QVQLQESGPGLVKPSETLSLTCTVSGGSISSYYWSWIRQPPGKGLEWIGYIYPSGSTNYNPSLKSRVTISVDTSKNQFSLNLKSVTAVDTAVYYCARVNPFGYYYAMDVWGQGTTVTVSS
VL: DIQMTQSPSSLSASVGDRITISCRASQSISTSLNWYQQTPGKAPRLLIYGASTLQSGVPSRFSGGGSGTDFSLTITSLQPEDFATYYCQESASIPRTFGQGTKLDIK
- Kd [10]: 5.95 nM

B6: Anti-FAM19A5 (P2-A01) (antibody, V domains shown)
VH: QEQLVESGGRLVTPGTPLTLSCTASGFFLSGYYMSWVRQAPGKGLEWIGIIYPSGSTDYASWAKGRFTISKTSTTVDLKITTPTTEDTATYFCARVAGYVGYGYETFFDIWGPGTLVTVSL
VL: ELVMTQTPPSLSASVGETVRIRCLASEDIYSGISWYQQKPGKPPTLLIYGASNLESGVPPRFSGSGSGSDYTLTIGGVQAEDAATYYCLGGVTYSSTGTHLTFGAGTNVEIK
- Bmax [1]: 1.19
- Kd [11]: 9.09 nM

B7: Anti-FAM19A5 (13F7) (antibody, V domains shown)
VH: QVQLQEWGAGLLKPSETLSLTCAINAESFNGYSWTWIRQTPGKGLEWIGEISHFGSANYNPSLKSRATISADKSKNQFSLKLTSVTAVDTAVYYCARALRGTYSRFYYGMDVWGQGTTVTVSS
VL: DIVMTQTPLSLPVAPGEPASISCRSSQSLLHSNGYNYLDWYVQKPGQPPQLLIYLGSNRASGVPDRFSGSGSGTDFTLKISRVEAEDVGVYYCMQARQTPLTFGGGTKVEIK
- Bmax [1]: 3.04
- Kd [12]: 2.77 nM
- Kd [10]: 0.25 nM

B8: Anti-FAM19A5 (P2-F11) (antibody, V domains shown)
VH: QEQLVESGGRLVTPGTTLTLTCTVSGFSLSSYGVSWVRQAPGKGLEWIGYIANNYNPHYASWAKGRFTISKTSSTTVDLKMTSLTTEDTATYFCARDNYGMDPWGPGTLVTVSS
VL: ELDLTQTPSSVSAAVGGTVTINCQASQSVYNNKNLAWYQQKPGQPPKLLIYAASTLASGVSSRFKGSGSGTQFTLTISDVQCDDAATYYCQGEFSCSSADCNAFGGGTELEIL
- S/N [13]: 1
- S/N [14]: 1
- Kd [15]: 0.41 nM
- S/N [16]: 7
- S/N [17]: 13.9
- Bmax [1]: 3.26
- S/N [18]: 1.7

B9: Anti-FAM19A5 (P2-F07) (antibody, V domains shown)
VH: QSLEESGGRLVTPGTPLTLTCTASGFSLSSYYMNWVRQAPGKGLEWIGIIYPSGTTYYAGWAKGRFTISKTSTTVDLKITSPTSEDTATYFCARTVSGYFDIWGPGTLVTVSL
VL: ELDLTQTPPSLSASVGGTVTINCLASEDIYSALAWYQQKPGKPPTLLISGTSNLESGVPPRFSGSGSGTDYTLTIGGVQAEDAATYFCQGYSSYPLTFGAGTNVEIK
- Bmax [1]: 0.134

B10: Anti-FAM19A5 (13B4) (antibody, V domains shown)
VH: QVQLQESGPGLVKPSGTLSLNCAVSGGSISSSNWWSWVRQPPGKGLEWIGEIYHGGTTNYNPSLKGRVTMSVDKTKNQFSLRLSSVTAVDTAVYYCARWQLVGGLDVWGQGTTVTVSS
VL: SYELTQPLSVSVSPGQTASITCSGDKLGNVYASWYQQKPGQSPTLVIYQDNKRPSGIPERFSGSNSGKTATLTISGTQALDEADYYCQAWDSSTAVFGGGTKLTVL
- S/N [19]: 1.1
- S/N [20]: 1
- Kd [21]: 1.06 nM
- S/N [22]: 2.3
- S/N [23]: 1.1
- Bmax [1]: 2.84
- S/N [24]: 3.1
- Kd [10]: 3.6 nM
